The text below walks through data of US20240101708A1 (Genentech, published 2024).

To fix the notation:
T1: recombinant human RNF43 extracellular domain (human, UniProt Q68DV7 24-197)
T1 construct: extracellular domain; also called huRNF43; human RNF43 ECD
T1 sequence (looked up): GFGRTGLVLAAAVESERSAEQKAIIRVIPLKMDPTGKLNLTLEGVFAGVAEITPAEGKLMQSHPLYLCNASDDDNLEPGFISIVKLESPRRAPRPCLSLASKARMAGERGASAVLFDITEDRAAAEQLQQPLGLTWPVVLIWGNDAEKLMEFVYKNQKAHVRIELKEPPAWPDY

B1: RNF43-86 (antibody, V domains shown)
VH: EVQLVESGGGLVQPGRSLKLSCAASGFTFTNYYMAWVRQAPTKGLEWVASISPSGDTTYYPDSVKGRFTVSRDNAKSTQYLQMDNLRSEDTATYYCARDAYTYYGYKGWYFDFWGPGTMVTVSS
VL: QFVLTQPNSVSTNLGSAVKLSCKRSTDDIGSNYVNWYQQHEGRSPTTMIYRDDKRPDGVPDRFSGSIDRSSNSALLTINNVQTEDEADYFCQSYSSGIYIFGGGTKLTVL
notes: Rat clone; VH/VL only
B2: RNF43-53 (antibody, V domains shown)
VH: EVQLVESGGGLVQPGRSLKLSCGASGFSFSTYYMVWVRQAPTKGLEWVASISPNGGNTYYPDSVKGRFTISRDNAKSTQYLQMDSLRSEDTATYYCATDGSYYYDGYRWLAYWGQGTLVTVSS
VL: QFVLTQPNSVSTNLGSTVKLSCKRSTGNIGSNYVSWYQQHEGRSPTTLIYRDDKRPDGVPDRFSGSIDRSSNSALLTINNVQTEDEAGYFCQSFSSGLFIFGGGTKLTVL
notes: Rat clone; VH/VL only
B3: RNF43-71 (antibody, V domains shown)
VH: QVKLLQSGAALVKPGDSVKMSCKASGYTFTDHIIHWVKQSHGKSLEWIGYINPYSGSTNYNEKFKSKATLTVDRSNNTAYMEFSRLTSEDSAIYYCARKNYGGYGVMDAWGQGASVTVSS
VL: DIQMTQSPSLLSASVGDRVTLSCKASQNIYKNLAWHQQKLGEAPKLLIYYANSLQTGIPSRFSGSGFGTDYTLTISSLQPEDVATYFCQQSSSGWTFGGGTKLELK
notes: Rat clone; VH/VL only
B4: RNF43-80 (antibody, V domains shown)
VH: EVQLVESGGGLVQPGRSLKVSCLASGFNFGDFGMNWIRQAPGKGLEWVSYISSTSGTIYYADTVKGRFTISRDNAKNTLYLQLSSLRSEDTALYYCARPAGRYFDYWGQGVLVTVSS
VL: DIVMTQSPSSLAVSAGETVTIDCKSNQSLLYSGNQKNYLAWYQQKPGQSPKLLIYWTSTRQSGVPDRFIGSGSGTEFTLTISSVQAEDLAIYYCQQYYHTPFTFGSGTKLEIK
notes: Rat clone; VH/VL only
B5: RNF43-181 (antibody, V domains shown)
VH: QIQLQQSGAELVKPGSSVKISCKSSAYRFTSNFIHWIRQQPGNGLEWIGWIYPGDGDAENNQKFNGKVILTADKSSSTAYMQLSSLTSEDSAVYFCARGVMTSLWYFDFWGPGTMVTVSS
VL: DVQMTQSPYNLAASPGESVSINCKASKSISKYLAWYQQKPGKTNKLLIYDGSTLQSGIPSRFSGSGSGTDFTLTIRSLEPEDFGLYYCQQHHEQPPTFGSGTKLEIK
notes: Rat clone; VH/VL only
B6: RNF43-196 (antibody, V domains shown)
VH: QVQLQQSGAELVKPGSSVKISCKASGFTFTSNFMHWIKQQPGNGLEWIGWIYPGDGDTDYNQKFNGKATLTADKSSSTAYMELSSLTSEDSAVYFCARAYYGSYWYFDFWGPGTKVTVSS
VL: DVQMTQSPHNLAASPGESVSINCKASKSISKYLAWYQQKPGKVKKLLIYGGSTLQSGIPSRFSGSGSGTDFTLTISSLEPEDFGLYYCQQHNEYPPTFGGGTRLELQ
notes: Rat clone; VH/VL only
B7: RNF43-177 (antibody, V domains shown)
VH: QVKLLQSGAALVKPGDSAKMSCKASGYTFTDSIIHWVKQSHGKSLEWIGYINPYSGGIQYNEKFKNKATLTVDKSSSTAYVEFSRLTSEDSAIYYCAREIRGMDAWGQGTSVTVSS
VL: DIVLTQSPATLSVTPGESVSLSCRASQGISTSLHWYQQKSTESPRLLIKYASQSVSGIPSRFSGSGSGTDFTLSINRVESEDFSVYYCQQSYNLPRTFGPGTKLELK
notes: Rat clone; VH/VL only
B8: RNF43-104 (antibody, V domains shown)
VH: QVQLKESGPGLVQPSQTLSLTCSVSGFSLTSFHVHWVRQPPGKGLEWMGLMWSNGDTSYNSDLKSRLSISRDTSKSQVFLKMHSLQTEDTATYYCARTDVYHGFGAMDAWGQGTSVTVSS
VL: DIQMTQSPSFLSASLGNSITITCHASQFIKGWLAWYQQKSGNAPELLIYKSSSLHSGVPSRFSGSGSGTDYILTISNLQPEDIATYYCQHYQGFPLTFGSGTKLEIK
notes: Rat clone; VH/VL only
B9: RNF43-136 (antibody, V domains shown)
VH: QVQLQQSGAELVKPGSSVKISCKASGYTFTSKFMHWIKQQPGSGLEWIGWIYPEHGNTKYNQKFDGKATLTADKSSSTAYMQLSSLTSGDSAVYFCARQSSQGAYAMDAWGQGTSVTVSS
VL: DIQMTQSPVSLSASLGQTVSIECLTSEGIPIDLAWYQQKSGKSPQLLIYAASRSQDGVPSRFSGSGSGTRYSLKISGMQPEDEADYFCQQTYKYPFTFGSGTRLEIK
notes: Rat clone; VH/VL only
B10: RNF43-116 (antibody, V domains shown)
VH: QVQLQQSGAELAKPGSSVKISCKASGYTFTSYYISWIKQTTGQDLEYIGYVNTRSGGTNYNEKFKVKATLTVDNSSSTAFMQLSSLTPDDSAVYYCARGRTDWGQGTLVTVSS
VL: DIQMTQSPSLLSASVGDRVTVNCKASQNIYKNLEWYQQKHGEAPKLLIYYTNNLQTGISSRFSGSGSGTDYTLTISSLQPEDVATYYCFQYNSGYTFGAGTKLELK
notes: Rat clone; VH/VL only
B11: RNF43-61 (antibody, V domains shown)
VH: EVQLVESGGDLVQPGRSLTLSCAASGFIFSDYYMAWVRQAPKKGLEWVASITYEGSSTYYGDSVKGRFTISRDNTKSTLYLLMNSLRSDDSATYYCARHGAHYTYNYAYYFDYWGQGVMVTVSS
VL: DIMLTQSPTTLSVIPGENISLSCRASQSVGTNLHWYQQKPSESPRVLINYASQSISGIPSRFSGSGSGTDFTLNINRVEPEDSSVYYCQQSKSWPFTFGSGTKLEIK
notes: Rat clone; VH/VL only
B12: RNF43-74 (antibody, V domains shown)
VH: EVQLVESGGDLVQPGRSLTLSCAASGFTFSDYYMAWVRQAPKKGLEWVASITYEGSSTYYGDSVKGRFTISRDNTKSTLYLLMNSLRSDDTATYYCARHGAHYTYNYAYYFDYWGQGVMVTVSS
VL: DIMLTQSPTTLSVIPGENISLSCRASQSVGTNLHWYQQKPSESPRVLINYASQSISGIPSRFSGSGSGTDFTLNINRVEPEDSSVYYCQQSKSWPFTFGSGTKLEIK
notes: Rat clone; VH/VL only
B13: RNF43-145 (antibody, V domains shown)
VH: EVQLKESGPGLVQPSQTLSLTCTVSGFSLTDYSVYWVRQPPGKGLEWMGVMWSGGTTAYNSALKSRLSISRDTSKSQVFLKMNSLQTEDTAIYYCTRGGKYDGTYYYGWYFDFWGPGTMVTVSS
VL: DVVLTQSPATLSVTPGERISLSCRASESVDTYLYWYQQKPNESPRLLIKYASQSISGIPSRFSGSGSGTDFTLSINGVELEDLSIYYCQQGNSLPLTFGSGTKLEIK
notes: Rat clone; VH/VL only
B14: RNF43-130 (antibody, V domains shown)
VH: QVQLVQSGAEVVKPGSSVKISCKASGYTFTGNFIHWIKQQPGNGLEWIGWIYPGDGDTTYNQKFSGKATLTADKSSSTAYMQLSNLTSEDSAVYFCAKWRDLSSDWFAYWGQGTLVTVSS
VL: DIVMTQSPVSLTVSEGEMVTINCKSSQSLLSSGNQKNYLAWYQQKPGQSPRLLIYFTSTRQSGVPDRFIGSGSGTDFTLTISDVQAEDLADYYCLQHYSYPNTFGAGTKLELK
notes: Rat clone; VH/VL only
B15: RNF43-31 (antibody, V domains shown)
VH: AVQLVESGGGSVQPGRSMRLSCAASGFTFSNYDMTWVRQAPTKGLEWVASITYDGGSTYSRDSVKGRFTISRDNAKSTLYLQMDSLRSEDTATYYCTTDRGRYLPYYFDYWGQGVMVTVSA
VL: DVVLTQTPVSLSVTLGDQASISCRSSQSLEYSDGYSYLEWYLQKPGQSPQLLIYEVSSRFSGVPDRFIGSGSGTDFTLKISRVEPEDLGVYYCFQAIHDPTFGAGTKLELK
notes: Rat clone; VH/VL only
B16: RNF43-41 (antibody, V domains shown)
VH: EVHLVESGGGLVQPGRSVKLSCTASGFTFSYYDMAWVRQAPTKGLEWVASLTYDGSSTYYRDSVKGRFTISRDNAKSTLYLQMDSLRSEDTATYYCTTDRGRYLPYHFDYWGQGVMVTVSS
VL: DVVLTQTPVSLSVTLGDQASISCRSSQSLEYSDGYTYLEWYLQKPGQSPQLLIYEVSTRFSGVPDRFIGSGSGTDFTLKISRVEPEDLGVYYCFQATHDPTFGAGTKLELK
notes: Rat clone; VH/VL only
B17: RNF43-67 (antibody, V domains shown)
VH: AVQLVESGGGSVQPGRSMRLSCAASGFTFSNYDMTWVRQAPTKGLEWVASITSDGGSTYSRDSVKGRFTISRDNAKSTLYLQMDSLRSEDTATYYCTTDRGRYLPYYFDYWGQGVMVTVSA
VL: DVVLTQTPVSLSVTVGDQASISCRSSQSLEYSDGYSYLEWYLQKPGQSPQLLIYEVSSRFSGVPDRFIGSGSGTDFTLKISRVEPEDLGVYYCFQAIHDPTFGAGTKLELK
notes: Rat clone; VH/VL only
B18: RNF43-38 (antibody, V domains shown)
VH: EVQLVESGGGLVQPGTSLKISCVASGFTFSDYWMSWVRQTPGKTMEWIGDIKSDGSYTNYAPSLKNRFTISRDNAKSTLYLQMNNVRSEDTATYYCTRDAYRYNYVHYGLDAWGQGASVTVSS
VL: QFVLTQPNSVSANLGSTVKLSCNRSTGNIGSNYVSWYQQHEGRSPTTMLYRDGKRPDGIPDRFSGSIDGSSNSALLTINNVQTEDEADYFCQSYSSGIKYIFGGGTKLTVL
notes: Rat clone; VH/VL only
B19: RNF43-56 (antibody, V domains shown)
VH: EVQLVESGGGLVQPGTSLKISCVASGFTFSDYWMSWVRQTPGRTMEWIGDIKYDGSYTNYAPSLKNRFTISRDNAKSILYLQMNNVRSEDTATYYCTRDAYGYNYVHYGLDAWGQGASVTVSS
VL: QFVLTQPNSVSSNLGSTVKLSCNRSTGNIGSNYVSWYQQHEGRSPTTMIYRDDKRPDGIPDRFSGSIDGSSNSALLTINNVQTEDEADYFCQSYSSDIKYIFGGGTKLTVL
notes: Rat clone; VH/VL only

Where “and” joins values, the source holds several entries; their conditions need not be identical. Identical values can stand only once.

The assay concerns the target T1, recombinant human RNF43 extracellular …. Nature of the assay: SPR Biacore 8K; antibody captured on Protein A; RNF43 ECD analyte; 25 C. How it is done:
Antibodies were screened for binding to recombinant human RNF43 and ZNRF3 ECDs using a Biacore® 8 k instrument (GE Life Sciences). Briefly, antibodies diluted to 1 μg/ml in 1×HBSP buffer (Cytiva, BR100368) were captured on a Sensor Chip Protein A (GE Life Sciences) using a flow rate of 10 μl/minute and a contact time of 60 seconds. Binding of recombinant human RNF43 and ZNRF3 extracellular domain to the captured antibodies was analyzed at 25° C. using a single cycle kinetics method with a flow rate of 30 μl/minute, a contact time of 180 seconds and a dissociation time of 600 seconds. The concentration of recombinant human RNF43 and ZNRF3 extracellular domain in the single cycle kinetics were 0, 0.8, 4, 20, and 100 nM. Between cycles, the chip was regenerated using 10 mM Glycine HCl pH 1.5 injected for 30 seconds at 30 μl/minute. Data were evaluated using Biacore 8K Evaluation software (GE Life Sciences). Kinetic constants were obtained using a 1:1 binding model with the parameter RI set to zero. Cell surface ligase antibodies with sub-nanomolar affinities may provide advantages in certain instances, for example, in the degradation efficiency which is correlated with the durability of the ternary complex as shown in FIG. 5D.
On the technique in general: In SPR one partner is held on a chip, and binding of the other changes the refractive index at the surface.
For the molecule B1, the Kd (in general, the concentration at which binding is half-saturated) is 17.3 nM.

Take B2: the Kd worked out at 3.3 nM.

B3: the Kd was determined as 0.03 nM.

With B4, the Kd is 0.48 nM.

Regarding B5, the Kd came out at 0.0859 nM.

For B6, the Kd came to 0.114 nM.

Take B7: the Kd worked out at 6.47 nM.

B8: the Kd came out at 9.12 nM.

For B9, the Kd was found to be 1.91 nM.

Turning to B10, the Kd worked out at 1.42 nM.

As for B11, the Kd was 0.43 nM.

For the molecule B12, the Kd stood at 0.35 nM.

In the case of B13, the Kd is 0.504 nM.

With B14, the Kd came out at 0.134 nM.

On to B15, for which the Kd stood at 0.13 nM.

Consider B16, for which the Kd is 0.37 nM.

On to B17, for which the Kd stood at 0.59 nM.

Consider B18, for which the Kd is 4.93 nM and 8.66 nM.

Consider B19, for which the Kd was 1.84 nM.
